Data set [1] concerns T1, ComPsub (Neisseria subflava), UPI00280B593C.
T1 sequence: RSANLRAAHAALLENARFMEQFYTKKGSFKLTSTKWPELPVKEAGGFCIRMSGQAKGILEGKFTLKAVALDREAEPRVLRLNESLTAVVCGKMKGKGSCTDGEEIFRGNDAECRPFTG
Nature of the data set: EMSA. The following applies: SPR (ProteOn XPR36, NLC chip): 25 mM HEPES pH 7.9, 150 mM NaCl, 2.5 mM MgCl2, 0.05% Tween-20, 25 C, 30 uM ComP; EMSA: native 10% acrylamide, LightShift kit ….

Data set [2] deals with ComP (Neisseria meningitidis 8013 (serogroup C clinical isolate)). Briefly: SPR. The following applies: SPR (ProteOn XPR36, NLC chip): 25 mM HEPES pH 7.9, 150 mM NaCl, 2.5 mM MgCl2, 0.05% Tween-20, 25 C, 30 uM ComP; EMSA: native 10% acrylamide, LightShift kit ….

Take “GTATGGGCGGCTCGGCGTTTGGTCAGGTGTACAACAATATGAGCGGCGACGCGCCCGATTTGGACGATACAGGCCGTCTGAAAGACTTTTACGGCGTGATTCAACAGCTTGTCGCCGAAGACAAACTCTTGGCGTATCACGACCGCAGCGAC (double strand) [purL fragment with one DUSvar1]”: the binding entry in data set [1] is “binds”.
With “TGACCATGCCGTCTGAACAAAC (double strand) [DUS]”, the binding signal in data set [2] was 100 % of DUS Req.

(Values after PMC3868556.)
